{"source": "FireProtDB", "parents": {"B1": {"name": "Lactose operon repressor, P03023 (parent)", "chain": "MKPVTLYDVAEYAGVSYQTVSRVVNQASHVSAKTREKVEAAMAELNYIPNRVAQQLAGKQSLLIGVATSSLALHAPSQIVAAIKSRADQLGASVVVSMVERSGVEACKAAVHNLLAQRVSGLIINYPLDDQDAIAVEAACTNVPALFLDVSDQTPINSIIFSHEDGTRLGVEHLVALGHQQIALLAGPLSSVSARLRLAGWHKYLTRNQIQPIAEREGDWSAMSGFQQTMQMLNEGIVPTAMLVANDQMALGAMRAITESGLRVGADISVVGYDDTEDSSCYIPPLTTIKQDFRLLGQTSVDRLLQLSQGQAVKGNQLLPVSLVKRKTTLAPNTQTASPRALADSLMQLARQVSRLESGQ"}, "B2": {"name": "Glutamate dehydrogenase, Q56304 (parent)", "chain": "MVEQDPFEIAVKQLERAAQYMDISEEALEFLKRPQRIVEVSIPVEMDDGSVKVFTGFRVQYNWARGPTKGGIRWHPEETLSTVKALAAWMTWKTAVMDLPYGGGKGGVICNPKEMSDREKERLARGYVRAIYDVISPYTDIPAPDVYTNPQIMAWMMDEYETISRRKDPSFGVITGKPPSVGGIVARMDATARGASYTVREAAKALGMDLKGKTIAIQGYGNAGYYMAKIMSEEYGMKVVAVSDSKGGIYNPDGLNADEVLAWKKKTGSVKDFPGATNITNEELLELEVDVLAPSAIEEVITKKNADNIKAKIVAELANGPTTPEADEILYEKGILIIPDFLCNAGGVTVSYFEWVQNITGDYWTVEETRAKLDKKMTKAFWDVYNTHKEKNINMRDAAYVVAVSRVYQAMKDRGWIKK"}, "B3": {"name": "Interleukin-6, P08505 (parent)", "chain": "MKFLSARDFHPVAFLGLMLVTTTAFPTSQVRRGDFTEDTTPNRPVYTTSQVGGLITHVLWEIVEMRKELCNGNSDCMNNDDALAENNLKLPEIQRNDGCYQTGYNQEICLLKISSGLLEYHSYLEYMKNNLKDNKKDKARVLQRDTETLIHIFNQEVKDLHKIVLPTPISNALLTDKLESQKEWLRTKTIQFILKSLEEFLKVTLRSTRQT"}, "B4": {"name": "Alpha-amylase, P29957 (parent)", "chain": "MKLNKIITTAGLSLGLLLPSIATATPTTFVHLFEWNWQDVAQECEQYLGPKGYAAVQVSPPNEHITGSQWWTRYQPVSYELQSRGGNRAQFIDMVNRCSAAGVDIYVDTLINHMAAGSGTGTAGNSFGNKSFPIYSPQDFHESCTINNSDYGNDRYRVQNCELVGLADLDTASNYVQNTIAAYINDLQAIGVKGFRFDASKHVAASDIQSLMAKVNGSPVVFQEVIDQGGEAVGASEYLSTGLVTEFKYSTELGNTFRNGSLAWLSNFGEGWGFMPSSSAVVFVDNHDNQRGHGGAGNVITFEDGRLYDLANVFMLAYPYGYPKVMSSYDFHGDTDAGGPNVPVHNNGNLECFASNWKCEHRWSYIAGGVDFRNNTADNWAVTNWWDNTNNQISFGRGSSGHMAINKEDSTLTATVQTDMASGQYCNVLKGELSADAKSCSGEVITVNSDGTINLNIGAWDAMAIHKNAKLNTSSASSTESDWQRTVIFINAQTQSGQDMFIRGGIDHAYANANLGRNCQTSNFECAMPIRHNNLKNVTTSPWKANDNYLDWYGIENGQSSEAEGSATDWTTNVWPAGWGAEKTVNTDGFGVTPLNIWGEHYWMLDVDMDCSKAVNGWFELKAFIKNGQGWETAIAQDNAPYTSTNHMAQCGKINKFEFNNSGVVIRSF"}}, "data": [{"variants_of": "B1", "conditions": "Escherichia coli (strain K12); pH 7.4; Thermal; CD; phosphate 5 mM; reversible: no; structure 1LBI; whole UniProt chain shown", "units": {"Tm": "°C"}, "values": [{"variant": "MKPVTLYDVAEYAGVSYQTVSRVVNQASHVSAKTREKVEAAMAELNYIPNRVAQQLAGKQSLLIGVATSSLALHAPSQIVAAIMSRADQLGASVVVSMVERSGVEACKAAVHNLLAQRVSGLIINYPLDDQDAIAVEAACTNVPALFLDVSDQTPINSIIFSHEDGTRLGVEHLVALGHQQIALLAGPLSSVSARLRLAGWHKYLTRNQIQPIAEREGDWSAMSGFQQTMQMLNEGIVPTAMLVANDQMALGAMRAITESGLRVGADISVVGYDDTEDSSCYIPPLTTIKQDFRLLGQTSVDRLLQLSQGQAVKGNQLLPVSLVKRKTTLAPNTQTASPRALADSLMQLARQVSRLESGQ", "note": "[K84M]", "Tm": 93}, {"variant": "MKPVTLYDVAEYAGVSYQTVSRVVNQASHVSAKTREKVEAAMAELNYIPNRVAQQLAGKQSLLIGVATSSLALHAPSQIVAAILSRADQLGASVVVSMVERSGVEACKAAVHNLLAQRVSGLIINYPLDDQDAIAVEAACTNVPALFLDVSDQTPINSIIFSHEDGTRLGVEHLVALGHQQIALLAGPLSSVSARLRLAGWHKYLTRNQIQPIAEREGDWSAMSGFQQTMQMLNEGIVPTAMLVANDQMALGAMRAITESGLRVGADISVVGYDDTEDSSCYIPPLTTIKQDFRLLGQTSVDRLLQLSQGQAVKGNQLLPVSLVKRKTTLAPNTQTASPRALADSLMQLARQVSRLESGQ", "note": "[K84L]", "Tm": 93}]}, {"variants_of": "B1", "conditions": "Escherichia coli (strain K12); pH 7.5; Urea; CD; Tris-HCl 0.01 M; K2SO4 0.1 M; reversible: yes (90%); structure 1LBI; whole UniProt chain shown", "units": {"unfolding free energy": "kcal/mol"}, "values": [{"variant": "MKPVTLYDVAEYAGVSYQTVSRVVNQASHVSAKTREKVEAAMAELNYIPNRVAQQLAGKQSLLIGVATSSLALHAPSQIVAAIKSRADQLGASVVVSMVERSGVEACKAAVHNLLAQRVSGLIINYPLDDQDAIAVEAACTNVPALFLDVSDQTPINSIIFSHEDGTRLGVEHLVALGHQQIALLAGPLSSVSARLRLAGWHKYLTRNQIQPIAEREGDWSAMSGFQQTMQMLNEGIVPTAMLVANDQMALGAMRAITESGLRVGADISVVGYDDTEDSSCDIPPLTTIKQDFRLLGQTSVDRLLQLSQGQAVKGNQLLPVSLVKRKTTLAPNTQTASPRALADSLMQLARQVSRLESGQ", "note": "[Y282D]", "unfolding free energy": 4.8}]}, {"variants_of": "B2", "conditions": "Thermococcus litoralis (strain ATCC 51850 / DSM 5473 / JCM 8560 / NS-C); pH 7; Thermal; DSC; diglycine 50 mM; KCl 700 mM; reversible: no; structure 1BVU; whole UniProt chain shown", "units": {"Tm": "°C", "change of melting temperature, mutant - wild type (higher = more stable)": "°C"}, "values": [{"variant": "MVEQDPFEIAVKQLERAAQYMDISEEALEFLKRPQRIVEVSIPVEMDDGSVKVFTGFRVQYNWARGPTKGGIRWHPEETLSTVKALAAWMTWKTAVMDLPYGGGKGGVICNPKEMSDREKERLARGYVRAIYDVISPYEDIPAPDVYTNPQIMAWMMDEYETISRRKTPSFGVITGKPPSVGGIVARMDATARGASYTVREAAKALGMDLKGKTIAIQGYGNAGYYMAKIMSEEYGMKVVAVSDSKGGIYNPDGLNADEVLAWKKKTGSVKDFPGATNITNEELLELEVDVLAPSAIEEVITKKNADNIKAKIVAELANGPTTPEADEILYEKGILIIPDFLCNAGGVTVSYFEWVQNITGDYWTVEETRAKLDKKMTKAFWDVYNTHKEKNINMRDAAYVVAVSRVYQAMKDRGWIKK", "note": "[T139E D168T]", "Tm": 112, "change of melting temperature, mutant - wild type (higher = more stable)": 2.5}, {"variant": "MVEQDPFEIAVKQLERAAQYMDISEEALEFLKRPQRIVEVSIPVEMDDGSVKVFTGFRVQYNWARGPTKGGIRWHPEETLSTVKALAAWMTWKTAVMDLPYGGGKGGVICNPKEMSDREKERLARGYVRAIYDVISPYTDIPAPDVYTNPQIMAWMMDEYETISRRKTPSFGVITGKPPSVGGIVARMDATARGASYTVREAAKALGMDLKGKTIAIQGYGNAGYYMAKIMSEEYGMKVVAVSDSKGGIYNPDGLNADEVLAWKKKTGSVKDFPGATNITNEELLELEVDVLAPSAIEEVITKKNADNIKAKIVAELANGPTTPEADEILYEKGILIIPDFLCNAGGVTVSYFEWVQNITGDYWTVEETRAKLDKKMTKAFWDVYNTHKEKNINMRDAAYVVAVSRVYQAMKDRGWIKK", "note": "[D168T]", "Tm": 108, "change of melting temperature, mutant - wild type (higher = more stable)": -0.5}, {"variant": "MVEQDPFEIAVKQLERAAQYMDISEEALEFLKRPQRIVEVSIPVEMDDGSVKVFTGFRVQYNWARGPTKGGIRWHPEETLSTVKALAAWMTWKTAVMDLPYGGGKGGVICNPKEMSDREKERLARGYVRAIYDVISPYEDIPAPDVYTNPQIMAWMMDEYETISRRKDPSFGVITGKPPSVGGIVARMDATARGASYTVREAAKALGMDLKGKTIAIQGYGNAGYYMAKIMSEEYGMKVVAVSDSKGGIYNPDGLNADEVLAWKKKTGSVKDFPGATNITNEELLELEVDVLAPSAIEEVITKKNADNIKAKIVAELANGPTTPEADEILYEKGILIIPDFLCNAGGVTVSYFEWVQNITGDYWTVEETRAKLDKKMTKAFWDVYNTHKEKNINMRDAAYVVAVSRVYQAMKDRGWIKK", "note": "[T139E]", "Tm": 104, "change of melting temperature, mutant - wild type (higher = more stable)": -5.5}]}, {"variants_of": "B3", "conditions": "Mus musculus; pH 4; 25 °C; Urea; CD; Sodium acetate 20 mM/; reversible: yes; structure 2L3Y; whole UniProt chain shown", "units": {"denaturant midpoint (higher = more stable)": "M"}, "values": [{"variant": "MKFLSARDFHPVAFLGLMLVTTTAFPTSQVRRGDFTEDTTPNRPVYTTSQVGGLITHVLWEIVEMRKELCNGNSDCMNNDDALAENNLKLPEIQRNDGCYQTGYNQEICLLKISSGLLEYHSYLEYMKNNLKDNKKDKARVLQRDTETLIHIFNQEVKDLHKIVLPTPISNALLTDKLESQKEWLRTKTIQFILKSLEEALKVTLRSTRQT", "note": "[F200A]", "denaturant midpoint (higher = more stable)": 2.6}, {"variant": "MKFLSARDFHPVAFLGLMLVTTTAFPTSQVRRGDFTEDTTPNRPVYTTSQVGGLITHVLWEIVEMRKELCNGNSDCMNNDDALAENNLKLPEIQRNDGCYQTGYNQEICLLKISSGLLEYHSALEYMKNNLKDNKKDKARVLQRDTETLIHIFNQEVKDLHKIVLPTPISNALLTDKLESQKEWLRTKTIQFILKSLEEFLKVTLRSTRQT", "note": "[Y123A]", "denaturant midpoint (higher = more stable)": 4.1}]}, {"variants_of": "B3", "conditions": "Mus musculus; pH 4; 25 °C; Urea; Fluorescence; Sodium acetate 20 mM/; reversible: yes; structure 2L3Y; whole UniProt chain shown", "units": {"denaturant midpoint (higher = more stable)": "M"}, "values": [{"variant": "MKFLSARDFHPVAFLGLMLVTTTAFPTSQVRRGDFTEDTTPNRPVYTTSQVGGLITHVLWEIVEMRKELCNGNSDCMNNDDALAENNLKLPEIQRNDGCYQTGYNQEICLLKISSGLLEYHSYLEYMKNNLKDNKKDKARVLQRDTETLIHIFNQEVKDLHKIVLPTPISNALLTDKLESQKEWLRTKTIQFILKSLEEALKVTLRSTRQT", "note": "[F200A]", "denaturant midpoint (higher = more stable)": 3.5}]}, {"variants_of": "B3", "conditions": "Mus musculus; pH 4; 37 °C; Urea; CD; Sodium acetate 20 mM/; reversible: yes; structure 2L3Y; whole UniProt chain shown", "units": {"denaturant midpoint (higher = more stable)": "M"}, "values": [{"variant": "MKFLSARDFHPVAFLGLMLVTTTAFPTSQVRRGDFTEDTTPNRPVYTTSQVGGLITHVLWEIVEMRKELCNGNSDCMNNDDALAENNLKLPEIQRNDGCYQTGYNQEICLLKISSGLLEYHSYLEYMKNNLKDNKKDKARVLQRDTETLIHIFNQEVKDLHKIVLPTPISNALLTDKLESQKEWLRTKTIQFILKSLEEALKVTLRSTRQT", "note": "[F200A]", "denaturant midpoint (higher = more stable)": 2.6}]}, {"variants_of": "B3", "conditions": "Mus musculus; pH 4; 37 °C; Urea; Fluorescence; Sodium acetate 20 mM/; reversible: yes; structure 2L3Y; whole UniProt chain shown", "units": {"denaturant midpoint (higher = more stable)": "M"}, "values": [{"variant": "MKFLSARDFHPVAFLGLMLVTTTAFPTSQVRRGDFTEDTTPNRPVYTTSQVGGLITHVLWEIVEMRKELCNGNSDCMNNDDALAENNLKLPEIQRNDGCYQTGYNQEICLLKISSGLLEYHSYLEYMKNNLKDNKKDKARVLQRDTETLIHIFNQEVKDLHKIVLPTPISNALLTDKLESQKEWLRTKTIQFILKSLEEALKVTLRSTRQT", "note": "[F200A]", "denaturant midpoint (higher = more stable)": 3.5}]}, {"variants_of": "B4", "conditions": "Pseudoalteromonas haloplanktis; pH 7.2; Thermal; DSC; Mops 30 mM; NaCl 50 mM; reversible: yes; structure 1AQH; whole UniProt chain shown", "units": {"Tm": "°C", "change of melting temperature, mutant - wild type (higher = more stable)": "°C", "unfolding enthalpy (calorimetric)": "kcal/mol"}, "values": [{"variant": "K324R N174D V220F Q188I T256V", "Tm": 51.8, "change of melting temperature, mutant - wild type (higher = more stable)": 7.8, "unfolding enthalpy (calorimetric)": 277}]}, {"variants_of": "B4", "conditions": "Pseudoalteromonas haloplanktis; pH 7.2; Thermal; DSC; MOPS 30 mM; NaCl 50 mM; reversible: yes; structure 1AQH; whole UniProt chain shown", "units": {"Tm": "°C", "change of melting temperature, mutant - wild type (higher = more stable)": "°C", "unfolding enthalpy (calorimetric)": "kcal/mol"}, "values": [{"variant": "Q82C A123C", "Tm": 40, "change of melting temperature, mutant - wild type (higher = more stable)": -4, "unfolding enthalpy (calorimetric)": 78}]}]}
